The text below walks through data of PMC2734569, “Functional mapping of the fission yeast DNA polymerase δ B-subunit Cdc1 by site-directed and random pentapeptide insertion mutagenesis” (BMC Molecular Biology, 2009).

What all share (experiment): two-hybrid; LexA-Cdc1 bait (pBTM116 or pBTM116BN) with Gal4-Pol3 prey and co-expressed c-myc-tagged Cdc27 (pAA-Cdc27) in S. cerevisiae CTY10-5d; ONPG liquid culture beta-galactosidase assay, mean of triplicates, as percent of wild-type Cdc1
Details in all cases: partners not purified

One experiment concerns the target T1, Cdc1-E9 (Schizosaccharomyces pombe, UniProt P87324 1-462, Tyr-GlyGlyTyrProTyr-Gly).
T1 construct: Cdc1, S. pombe, with a pentapeptide inserted after residue 124; source: yeast two-hybrid fusion, in S. cerevisiae CTY10-5d
T1 sequence (looked up): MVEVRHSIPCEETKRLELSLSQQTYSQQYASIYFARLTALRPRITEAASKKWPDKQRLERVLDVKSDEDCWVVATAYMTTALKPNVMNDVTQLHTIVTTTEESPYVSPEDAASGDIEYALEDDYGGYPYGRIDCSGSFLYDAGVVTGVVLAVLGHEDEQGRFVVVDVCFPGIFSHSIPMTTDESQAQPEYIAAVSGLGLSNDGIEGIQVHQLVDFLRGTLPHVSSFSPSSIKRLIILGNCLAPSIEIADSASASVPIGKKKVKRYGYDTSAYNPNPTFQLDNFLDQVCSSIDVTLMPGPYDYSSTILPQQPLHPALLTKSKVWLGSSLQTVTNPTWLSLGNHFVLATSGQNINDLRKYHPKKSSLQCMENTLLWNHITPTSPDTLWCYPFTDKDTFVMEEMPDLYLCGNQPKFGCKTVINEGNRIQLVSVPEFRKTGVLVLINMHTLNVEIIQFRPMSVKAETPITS

The target of another experiment is T2, Cdc1-J1 (Schizosaccharomyces pombe, UniProt P87324 1-462, Thr-GlyValProLeuThr-Gly).
T2 construct: Cdc1, S. pombe, with a pentapeptide inserted after residue 141; source: yeast two-hybrid fusion, in S. cerevisiae CTY10-5d
T2 sequence (looked up): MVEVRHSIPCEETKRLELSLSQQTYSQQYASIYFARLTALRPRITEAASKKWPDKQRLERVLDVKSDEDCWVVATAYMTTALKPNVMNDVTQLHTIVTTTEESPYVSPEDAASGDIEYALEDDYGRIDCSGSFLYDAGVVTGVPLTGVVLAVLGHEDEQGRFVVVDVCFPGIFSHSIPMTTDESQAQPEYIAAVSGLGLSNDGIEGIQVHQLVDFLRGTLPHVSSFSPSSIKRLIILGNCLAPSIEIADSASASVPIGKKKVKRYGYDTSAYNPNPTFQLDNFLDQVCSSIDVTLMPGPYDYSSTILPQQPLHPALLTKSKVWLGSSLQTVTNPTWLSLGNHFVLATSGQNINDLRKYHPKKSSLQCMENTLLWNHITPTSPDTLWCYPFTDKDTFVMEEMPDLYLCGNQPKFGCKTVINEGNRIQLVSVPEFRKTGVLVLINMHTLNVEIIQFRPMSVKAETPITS

For the next experiment, the target named is T3, Cdc1-J9 (Schizosaccharomyces pombe, UniProt P87324 1-462, Met-ArgGlyThrProMet-Thr).
T3 construct: Cdc1, S. pombe, with a pentapeptide inserted after residue 174; source: yeast two-hybrid fusion, in S. cerevisiae CTY10-5d
T3 sequence (looked up): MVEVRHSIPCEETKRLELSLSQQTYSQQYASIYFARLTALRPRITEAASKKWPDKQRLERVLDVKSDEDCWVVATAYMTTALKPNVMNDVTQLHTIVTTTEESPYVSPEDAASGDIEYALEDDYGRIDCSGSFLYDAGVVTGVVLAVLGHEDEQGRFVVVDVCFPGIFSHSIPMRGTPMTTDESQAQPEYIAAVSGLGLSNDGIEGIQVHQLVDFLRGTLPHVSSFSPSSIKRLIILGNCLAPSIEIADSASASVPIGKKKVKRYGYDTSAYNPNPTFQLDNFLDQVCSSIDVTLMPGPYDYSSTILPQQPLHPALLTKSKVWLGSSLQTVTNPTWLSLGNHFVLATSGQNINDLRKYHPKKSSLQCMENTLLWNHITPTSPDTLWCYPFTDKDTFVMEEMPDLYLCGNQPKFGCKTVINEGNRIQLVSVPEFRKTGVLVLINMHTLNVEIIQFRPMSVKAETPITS

In another experiment the target is T4, Cdc1-A1 (Schizosaccharomyces pombe, UniProt P87324 1-462, Pro292Ala).
T4 construct: Cdc1, S. pombe, point mutant; source: yeast two-hybrid fusion, in S. cerevisiae CTY10-5d
T4 sequence (looked up): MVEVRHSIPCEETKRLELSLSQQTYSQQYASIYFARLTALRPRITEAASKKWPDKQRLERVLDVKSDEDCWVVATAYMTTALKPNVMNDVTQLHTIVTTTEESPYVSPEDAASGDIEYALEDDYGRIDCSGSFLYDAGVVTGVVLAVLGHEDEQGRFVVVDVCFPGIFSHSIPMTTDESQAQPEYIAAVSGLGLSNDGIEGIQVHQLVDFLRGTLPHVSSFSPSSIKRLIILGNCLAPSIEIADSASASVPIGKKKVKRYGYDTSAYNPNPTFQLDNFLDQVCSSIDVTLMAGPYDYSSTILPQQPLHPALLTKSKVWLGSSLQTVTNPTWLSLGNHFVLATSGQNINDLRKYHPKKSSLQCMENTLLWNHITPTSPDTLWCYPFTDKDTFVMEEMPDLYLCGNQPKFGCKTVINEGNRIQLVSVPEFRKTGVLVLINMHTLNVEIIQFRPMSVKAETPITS

B1: Pol3 (fission yeast DNA polymerase delta catalytic subunit) (natural protein, Schizosaccharomyces pombe, UniProt P30316 1-1086, looked up)
chain: MTDRSSNEGVVLNKENYPFPRRNGSIHGEITDVKRRRLSERNGYGDKKGSSSKEKTSSFEDELAEYASQLDQDEIKSSKDQQWQRPALPAINPEKDDIYFQQIDSEEFTEGSVPSIRLFGVTDNGNSILVHVVGFLPYFYVKAPVGFRPEMLERFTQDLDATCNGGVIDHCIIEMKENLYGFQGNEKSPFIKIFTTNPRILSRARNVFERGEFNFEELFPVGVGVTTFESNTQYLLRFMIDCDVVGMNWIHLPASKYQFRYQNRVSNCQIEAWINYKDLISLPAEGQWSKMAPLRIMSFDIECAGRKGVFPDPSIDPVIQIASIVTQYGDSTPFVRNVFCVDTCSQIVGTQVYEFQNQAEMLSSWSKFVRDVDPDVLIGYNICNFDIPYLLDRAKSLRIHNFPLLGRIHNFFSVAKETTFSSKAYGTRESKTTSIPGRLQLDMLQVMQRDFKLRSYSLNAVCSQFLGEQKEDVHYSIITDLQNGTADSRRRLAIYCLKDAYLPQRLMDKLMCFVNYTEMARVTGVPFNFLLARGQQIKVISQLFRKALQHDLVVPNIRVNGTDEQYEGATVIEPIKGYYDTPIATLDFSSLYPSIMQAHNLCYTTLLDSNTAELLKLKQDVDYSVTPNGDYFVKPHVRKGLLPIILADLLNARKKAKADLKKETDPFKKAVLDGRQLALKVSANSVYGFTGATNGRLPCLAISSSVTSYGRQMIEKTKDVVEKRYRIENGYSHDAVVIYGDTDSVMVKFGVKTLPEAMKLGEEAANYVSDQFPNPIKLEFEKVYFPYLLISKKRYAGLFWTRTDTYDKMDSKGIETVRRDNCPLVSYVIDTALRKMLIDQDVEGAQLFTKKVISDLLQNKIDMSQLVITKALSKTDYAAKMAHVELAERMRKRDAGSAPAIGDRVAYVIIKGAQGDQFYMRSEDPIYVLENNIPIDAKYYLENQLSKPLLRIFEPILGEKASSLLHGDHTRTISMAAPSVGGIMKFAVKVETCLGCKAPIKKGKTALCENCLNRSAELYQRQVAQVNDLEVRFARLWTQCQRCQGSMHQDVICTSRDCPIFYMRIAEHKKLQQSVDLLKRFDEMSW
notes: DNA polymerase delta catalytic subunit Pol3, S. pombe; prey plasmid named pACT-Pol3 in the results and pGAD2F-Pol3 in the methods; also called Gal4-Pol3; pACT-Pol3; source: yeast two-hybrid fusion, in S. cerevisiae CTY10-5d
Turning to B1, the “two-hybrid beta-galactosidase activity, % of wild-type Cdc1” value is 24% with Cdc1-E9, < 1% with Cdc1-J1, 91% with Cdc1-J9 and 39% with Cdc1-A1.
